From the domain aggregation screens of Martell et al. (2025)

Assay: soluble fraction after stress (log2 fold change); higher = more stays soluble; pooled small domains, quantitative proteomics
Conditions: stress: 50 degC
In short: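 The measure of aggregation propensity here is the base-two logarithm of the fold change in the soluble amount of each protein after stress. A higher value means more of that protein stays in solution. Stress was applied at 50°C to pooled libraries of small protein domains, read out by high-throughput quantitative proteomics.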

Row | Sequence | soluble fraction (log2)
1 | HMNHNPSIARKISREIKRGAPPESLLNLARTVNDSYYRSLSFVSIAYSIKGKKSKELFEEAISNLT | -0.161
2 | HMNHTIEENDRVLILDPRGKKYLITVTNRVFHTNLGKLDISELIGKNYGDKIKSHMGKNFSILKPNLIDYI | -0.0858
3 | HMNIAEIGQKVAQQRVALGISQERLAKLSDLSRSTIHHLEHGTLHEIGAAKLFKLLSLLDIQLK | -0.761
4 | HMNIDQAFISDLERMIMPDISKYELMDIISIMENSGFTIKVEGTGNEVRQVIKPGSKLKKGQKIKIKL | -1.83
5 | HMNIEIIEVQEESTPSEISKIISTESTKIIEDLLNLGVMASLETPLKNQDIEKLLEGYGYIVDIKP | -0.372
6 | HMNIGEKIKKIRTQQNKSTYELADIINKNGFKISQSAISKIENGRKKIDIETLEEIAKALDIEVDLLIT | -0.14
7 | HMNIGIVSLAAVPMRKEPSDRAEMVNQILFGETFDVLEEQEKWTLVQLHHDAYQGWIDRKQWDYASGIAD | -1.01
8 | HMNIIHNPSKNFIESDLNDLKEGMEIEHKKFGYGLIKSIDKTQNHQKAVVNFKLVGEKTLLLSFARLRIV | -2.75
9 | HMNIILFLDELHRLLSDLPPEERNQAIKYYEDYFEDAGPENEQAILKELGSPQELANQIKATT | -0.627
10 | HMNIIMLGEFIKEQRIKRKMTQEYLASELGISRPTYSQIELGTRELTIPEARKMAAIFNISLEDFLAEKE | -0.604
11 | HMNIMNINQALNVLNLKGTVSKEELAKAYKKMAIKYHPDRNPTGVEMMKVINSAYEFLKGLNLEEIKH | 0.256
12 | HMNINLNVGKRLKSIRQNKELSLDEVSNLTNVSKPALAQIERGASSPTINTLWKISKGLKVPLSYFLQE | -0.0405
13 | HMNINVRNTGIKAVENNIINLSSDQRTFTWASNDRKLITVPFDENPYSALAAWFKTDEGIEVYQTIEKKL | -0.115
14 | HMNIWNEWAFKKWIESDEYTGPDMTDFGHRTLVDEEFSKQYKEQMSLFKERVLTDDEFSAKYGDL | -0.66
15 | HMNKEDIASNEKLLGLLNHMSKVLKDIDFIKDDRPMIVRKINHIFKKATLSEEEINILRGVLSAIENHS | -0.479
16 | HMNKEKLLEMFESMSIIIVQSLEEKEQTEDRIETELFNEAKTPRYSTLTKQDIQSVIRNILITVGV | -1.84
17 | HMNKELVVPDLTDMRVKDAEFEAHQVGMRTEIVDSVYVRRLKRGYVYKQNPVPGSKVKKGRRIALTINAV | 0.202
18 | HMNKETYIDALERKLWDRLDPDQLRDIISYYKDYFAMEAAKGISEEETIRKLGDPALLAKSILAAE | -0.335
19 | HMNKEVDLPNFVGMTKENAQAQADKIKIKLEFEEEYSSDVEEGKIISQNPEYKENYKIKEKSTVSLKI | 0.118
20 | HMNKFKVNERVRVIATGEIGIVKGREILPVEGSKRVNIEYLVKVGNGFSNWKAFSKKELEPVR | -1.18
21 | HMNKFRVGDEVEIVKLDKTIQHFGGEEVLSPVGTKTYITYVDVTGKEIEIDKDIYSYHADDLTLV | 0.147
22 | HMNKKLEMKIEQLDLSVRLFNSLKRSGIYTVAQIIKLTEEDVMRFRSLGRKSFKELKEKLSEHGLEFE | -2.15
23 | HMNKLKALREEQGLSMMEIAKQLNMPYTTYVNYEKGTREPNSEMLIKFSKFFNVTIDYLIGNSEQKN | -0.502
24 | HMNKNLQLMINEIKKGLASEDIETRKKSVLMLSRIDAPEIIQVLEPLKDDSSEEIRKISSKIISVLSKKYT | 0.168
25 | HMNKNQGVTTTNLNFRKSASTSSLVLYTIPKNTTLDILDKLPSGWYKVKYKGLTGYVSGSYV | -1.37
26 | HMNKPTFNIFNNRLTFPFKGDITIYSLDGKRVFSAYNESSVNLSFLNRGSYISEFNNSRSVLIL | -1.39

Row | Sequence | soluble fraction (log2)
27 | HMNKRKQRINDLMDLIREQPALSIKNLAEMLNVSEMTIRRDMAYLKSNNLLNRAHGMNFLNS | 0.0812
28 | HMNKSEFLNELEKRIRVLEKNEIKDILAEYSQHIDMRMGSGLSEAEAIKDFGDMDDLAAEILEAY | 0.08
29 | HMNKVDEEKNAELVSTIQNKFSDVSAATKKKVKAFMAEHDIPNFKNADEIPTANLEAIVAMLNED | 0.229
30 | HMNKYNNIEDLKEEDFENISEKYQVPVSFVKSKLDDLINWHEKNPQKNHYKNYLSALRDWVKRDSLKIKL | 0.0328
31 | HMNLDELGNRIREQRIKQRLKQQDIANALMLSAQAVSKWERGENAPDISVLPDLVKILGVSVDWLLTGP | -0.734
32 | HMNLDPHVVGHRLRDLRTRRDLTLADVAAETDISVSTLSRLESGSRRATLELLVPLARTYRVTLDELVDA | -0.66
33 | HMNLDPIKRKSEILSLFESHKNVKFNEIFFEKVNKEFTVLTFLIILELVKDNIIDFSQTQEGLIEFFTR | -0.115
34 | HMNLDVPGIIKRAKQALNLKRDSELAEFLGVSRATVTNWAARNSIDFRLLLDKLGNTVDYNWLLLGKGNPK | -0.221
35 | HMNLDYKQFQVFNNIETLNTFTNLLSDNKIDFEVENNSKIFDPSFANNDFEKEYIVKIHPNDFEKVY | 0.064
36 | HMNLEIGAIIKSLRAKHKYTQEQLSAFLGVTPQAVSRWEAGNGYPDIELLPAIARFFEVSTDELLGL | -0.428
37 | HMNLGDLYVIMEIAGQRDDVSARLMNREGQTFLVKTGTKLKSGDVVKEITPTYIKTDHDGEEAFLYF | -0.542
38 | HMNLGETIYNLRKEKKLSQGDLAEQLSVSRQSVSKWENNSAVPDLDKLVKLSTIFGVSLDELVKG | 0.0247
39 | HMNLGLTGDPSVLYSILLQRGDSSRADLQRQTGWSLSKTTLVLNQLLAQKLIVQVGAGRSTQYRVIN | -0.983
40 | HMNLGNLAYESKVTKQVLNMIRPLHPEYSSDDITRAVKEILSEEGSRQRRVDEIARGALDVLMGNPR | 0.216
41 | HMNLLQAHLLRLESAALLAEVREVDRQLSRWLHPLTPQSDVAIIDERNWEAAVARLTELGVHIEEGRW | -2.92
42 | HMNLNIGNNIKNIRKSKNMTQTDFAELMGLSRSYIGDLENNRSNPSIKTLEAIARALDVPIVALIN | -0.399
43 | HMNLSSETLSEMEARIGQMGVVELQDRRAYLLQEQEGTQNPSRLKEIADELSAIQKALVALV | 0.1
44 | HMNLTEIGQRIRDRREELGLSQDRLAKLGGLPRVTINQLETGSIGDLGVSKLLNLLDLLGLTLDA | -0.108
45 | HMNLTLMDALKAAGLPVDGINLSMVNKMMEEQMPIDKTSLNQMYQLVQDNKDINVTTLVELKRLG | -0.0277
46 | HMNLTSNDAYSRILNAIITSELRPGDTVTEIQLAQKFGFGRTPVREAIMRLENEGFIVSAERKKRVYIL | -2
47 | HMNLTSSDIQKILSYALLADNSITLNSIEESMASLKLKKMSAEQLIELLEVSSMVLRNTNNSWSIL | -1.95
48 | HMNMENIADKIGKIYESLPEDLKLMIKYRDIDDLTYDEIAVKADLPVGTVRSRLHRAREQLLKELEKN | -0.143
49 | HMNMEPNWLKWAKQLAALAQNGLTYSDNPYEIERYEHIRRIAAEMMAEGFELDTKTILELFPREKG | -2.05
50 | HMNMFDMRKTGARISQLRRAAGLTQAELAEKLGISYQAVSSWERGSNMPDIGKLLDLARILNTTVDALLSA | -0.375
51 | HMNMGKRFKELRKERKFTQQQLADRIGLAPSAISSYESGARYPSYDVLIKYSKIFHVTTDYLLG | -2.81
52 | HMNMKVGPVPANVVPANIKAHVSNNYSKYQIVQMMQNDKGYQVKLSNGTDLYYDKDGNILKTS | 0.196

Row | Sequence | soluble fraction (log2)
53 | HMNMSVGAALRRRRNELGMTLRELADEAELTSGFLSQVENDRVSPSLKSLGRIAEVLRIPLFQLLS | -1.29
54 | HMNMSVVEKVIQQISNPGRDSLIPILQAVQEEEGFISRESVIEIGKALDLPASKIYGVATFYNQFR | -0.338
55 | HMNMTDVLVVNQTVRGGTQITESMLSVKKVDKSSLPDNYLKASLKDEVVGKYFDLGLTSGGVLTKDNISVS | 0.00597
56 | HMNMVSGHLQIKKGYYYVVLSYYDNRNKRHVKYVSTGLPEKGNKRKAEAALARVRSEFEPPQE | -3.55
57 | HMNNDFIVKSTDSHKVNLRSQPDTHADIIKRLDDHTIVEKLKTVRKNWYLVQLKDTTTQGYVHKSQLERV | -0.0413
58 | HMNNDFVERLRKLFGHASMAEIARRIDVPHATIRNYFQGRLPAPEVLIKLARETGVSLNWLLTGEGKMFA | -0.253
59 | HMNNENELSSIISKVLEENPAEKERFLNGEKKLAGFFMGKIMKATKGTADPKKAAQLLNEIL | 0.295
60 | HMNNFNVVVGKAIKNSFNTRENYITINAGKVLGIKTDMGVINDKGIVGIVEKTSKDFATIQSVLNIKS | 0.00115
61 | HMNNGTDGLTTRLRRAILAGQYTFKERLPSERQLAEHFNTSRGTVRKVLQRLTTMNLVEQRAGSGTYVRYG | -0.2
62 | HMNNIGSKIKSAKILNNLDDNQLSEITGIDKLQLRSIQDGQVNPTKMELEIISKALKLPTNYFTK | -0.0222
63 | HMNNIIYLIANKLDVGKRLDQFITIRTEFSRQRVINLIEDGYVKLNNKIINLKKYKIKGDEKIEITIPEIR | -0.542
64 | HMNNKVAVKSGYYFEIFNKEEIPTTLAKTKQKVKINNIQYDLYQGMSLDDERKIDDMFGDRMGYSIDDY | -1.04
65 | HMNNKVAVKSGYYFELFDKDEIPATLEKMKQKVKIDNIKYDLYQGTSLEDERKIDTMFGEKMGYSIDDYI | 0.0224
66 | HMNNLVTRREVEILGWIKEGKTTSDIAGILSLSPFTVKNHVQNILKKLGARSRSHAVAQAINLGLLH | -0.773
67 | HMNNPISMQKLRQVIRLYGQGKGTKSINSMLGVSRNTIKKYLQVYHSSGINYESFLAMSDKELSAVFLV | -0.398
68 | HMNNQVTFSKFLNEVEDGRVVEVNIQGNNITGVLSDGSKFKTFSPNYPNLVEKLSEKGVSINASPL | 0.1
69 | HMNNTIKFSVDENNSGKRLDVYLTENINHLTRSFLKKLIEKEQVKLNKKVLTSPATKVKTKDQITINIIE | 0.172
70 | HMNNWYESSIKSLVEEYFREHGFSVVFDSSEFWDVFIEKYHKQIPSSQIALFDQVAAEARSYAFNKK | 0.116
71 | HMNPETLTNGSVVKMSKANLSDELIIDMINNSPARFDLSSGALRSLEGEGVSKAVIESMKRATSG | 0.191
72 | HMNPETLTNSSVIKMSKANLSDELITDMILNSPVKFDLSAGAIKTLESEGVTPAVLESMKNAASK | 0.154
73 | HMNPFTHEEINLMSIYNAAGTREGLIAALTEMWGYLDAEETELRELADSALAKLRGITDAEYAALELE | -0.633
74 | HMNPGAYQVKAGEGLIGLSRRYNVPVDVLASVNNLNTTSSLRVGQTITIPTAAQVNRITQQAQ | 0.287
75 | HMNPGHAERGKEIVEVFLRNNGELSMREIAEKSNITITQARRRVNKLLDQGIVEATAPVQSRNRKYRIK | 0.134
76 | HMNPIEAQIEELKNKDQKTAYQALKHLLAISETRAEVSYYFDRFVALLQDPQSYVRTRGLLLIGA | 0.271
